Laboratory results as given in the RNAGym collection of RNA variant scans (doi:10.7554/elife.80360).

B1: Hammerhead Ribozyme (parent)
chain: ACCGGAUGUGCUUUCCGGUCUGAUGAGUCCGUGAGGACGAAACAG

Variants of: B1
Assay: self-cleavage, relative activity (ratio to wild type); higher = more cleavage; co-transcriptional

Variant | self-cleavage
U7C U12G | 1.43
A42U A44C | 0.96
A42U A44G | 1.37
G18U A26U | 0.368
G4C G17A | 0.298
U24A G45C | 0.639
A23G G33U | 0.458
A1U G4A | 0.342
G17C G25U | 0.296
C11U | 1.02
A42C C43A | 0.368
U14G A44C | 0.681
U13C A37U | 0.482
U13C G36A | 0.701
A1G G8C | 1.47
U19C G25U | 0.273
G25C U32A | 0.298
G33A G35C | 0.787
C2G G33A | 0.463
U14G G25U | 0.28
U14G G25C | 0.315
A1G G10C | 1.61
U24A G25A | 0.243
G10U G39C | 0.379

Variant | self-cleavage
A26G A40U | 0.412
G22U C29A | 0.299
C20G A40C | 0.322
A26C C29U | 0.448
G8U A40U | 0.301
G8C U12C | 1.11
U24A G35C | 0.851
U19A A23U | 0.386
G4U C29U | 0.413
G17A G22A | 0.315
G5A A23U | 0.304
A23U A41C | 0.33
U32C G36A | 0.718
U24G C29G | 0.781
G33A A40U | 0.525
G18U U32C | 0.857
A34C G39C | 0.32
G22U G36U | 0.301
U7G U14G | 0.831
C11G G45U | 0.928
A26C A41G | 0.307
C29A A42G | 0.265
C43U A44C | 1.93
U7G C11U | 1.12

Variant | self-cleavage
G25U U28A | 0.385
A6U A41G | 0.289
U24A C30A | 0.928
U24A C30G | 1.04
U19A G22A | 0.346
U14A C30U | 0.96
G33C A41C | 0.432
G5A C29U | 0.95
U14G C16G | 0.476
C20U U32G | 0.494
C11G A42G | 0.303
A1C C15A | 0.497
A6G G35U | 0.465
U12C A26C | 0.505
C16G G25U | 0.384
U7C C29U | 0.992
G4C U7G | 0.768
U13A G35A | 0.89
U19A C43A | 0.279
A1U C3U | 0.433
G8A A37U | 0.731
G4C C15A | 0.524
U7C G8A | 0.95
G17A G45A | 0.413

Variant | self-cleavage
U32G G35C | 0.626
C30G | 0.867
U7G A23G | 0.273
U7A C16A | 1.29
C15U C29G | 0.802
A6G U7A | 1.09
G27C C29A | 0.414
A42U G45U | 0.427
A42U G45A | 0.374
C2A A34G | 0.48
A1G A40C | 0.691
A1G A42C | 0.361
G17U A44C | 0.495
G8A C29A | 0.565
G25A G36A | 0.32
U32C A40U | 0.306
C15U G27U | 0.579
C15U G27A | 0.687
G8U G10A | 1.47
C2U C38U | 1.21
C20U A23U | 0.279
U19G U28A | 0.411
C11U G39C | 0.389
C20A A26G | 0.344

Variant | self-cleavage
A1C U32G | 0.302
U13C C16U | 0.976
U12A U24G | 1.23
G22A U24C | 0.311
C16A G25C | 0.372
G17C | 0.575
G25A G31U | 0.416
G25A G35A | 0.315
U28C A41U | 0.319
A26C G33U | 0.774
C2A G39C | 0.305
G5C U19A | 0.344
C3A U7A | 0.687
U14A U19A | 0.304
U19C A26U | 0.492
C3U G4C | 0.3
G5C U32C | 0.559
G39C A40C | 0.306
U19G A37U | 0.339
G18C G27A | 0.416
C16U A26U | 0.816
A26U A44C | 0.477
U19G A23C | 0.346
A6U C43G | 0.342

Variant | self-cleavage
U13G U21A | 0.507
A34C G35A | 0.893
G10C A41G | 0.392
G10A G36U | 0.632
C2A G35A | 0.402
U21C G31A | 0.974
G25A U28C | 0.355
C2U U21G | 0.742
A1U U28A | 0.3
G18A A42G | 0.347
G18A U28G | 0.542
C29A C38U | 0.652
A37U C38G | 0.384
U12A G18A | 0.726
U14A A26C | 0.47
C2G G31U | 0.503
U14A A34G | 0.73
U7C G36A | 0.421
G10A U13G | 0.956
U32C C38U | 0.726
G18C G39A | 0.289
G5U A41C | 0.402
G8C A44U | 0.56
C11U G33A | 0.95

Variant | self-cleavage
U14C G36A | 0.552
U14A C20U | 0.398
G22U A44U | 0.335
G10C A34G | 0.841
C29U U32G | 1.06
C2A U13A | 1.08
U14C G17U | 0.561
U13A C43G | 0.335
U7A G10A | 1.33
U24C G33C | 1.15
A6C C16A | 0.643
G18U A34U | 0.51
U28G G39A | 0.411
A34C A40C | 0.316
C30A A42C | 0.322
C2U C43U | 0.441
G4U A26G | 0.274
C11U U14A | 0.998
A6C U12A | 0.826
U9C A41G | 0.356
U9A C30A | 1
U19A C30G | 0.28
G4C C30G | 0.371
C3G G17A | 0.511

Variant | self-cleavage
G35C G45A | 0.385
A6U U28C | 0.638
G5U C43A | 0.352
C3A U28A | 0.311
G39A A42C | 0.369
U28C C30A | 0.826
U28C C30U | 0.573
G27C G35C | 0.394
G35U | 0.817
G17C A40G | 0.373
U9G A41C | 0.294
U9G A41U | 0.306
U12A G39U | 0.361
U12A G39A | 0.257
C2G U28A | 0.37
U28C G45C | 0.406
C2G A44G | 0.627
G8C U9A | 0.907
A26U A34C | 0.355
U13G C38G | 0.531
G10C U24C | 0.853
C16U C20G | 0.307
G4C C43A | 0.285
C16U G22C | 0.318

Variant | self-cleavage
C2U A41C | 0.35
U7A G17U | 0.524
C11G U13A | 1.21
U7G C20A | 0.359
G17U C20A | 0.422
A1G G33C | 1.67
C2G A6C | 0.196
C3U A41C | 0.404
G39A G45C | 0.421
G18C A34U | 0.409
A1U A34U | 0.452
C43A G45C | 0.441
G8U C29U | 1.01
U19G G35U | 0.397
G4A U13C | 0.824
U32G G45A | 0.56
G8C G18A | 0.509
U7G G39C | 0.293
G17C A41G | 0.388
U21C G35C | 0.681
A1U A44U | 0.425
G18C G22C | 0.333
U19A G31A | 0.41
A23U A42G | 0.375

Variant | self-cleavage
A23U A42C | 0.331
C20A U32G | 0.255
U24A A34G | 0.777
U14G G22U | 0.394
G4A A23C | 0.337
G5C A40G | 0.237
G5C G36A | 0.35
U7G G27U | 0.511
U13C C38G | 0.458
C20A U24C | 0.368
U7C C38G | 0.533
U7C C16G | 0.487
A41U A42C | 0.271
A1C G10U | 0.339
U12G G18C | 0.61
U7G U9A | 1.19
G33A G36A | 0.894
A23U A26U | 0.374
U13A A23G | 0.441
A23G G36A | 0.34
G4C G39U | 0.293
G5C G27U | 0.321
A37G A42C | 0.342
C29A A44G | 0.765

Variant | self-cleavage
U14G A42U | 0.268
A6C G45A | 0.384
G18C | 0.62
G18U C20U | 0.437
G8C G27U | 0.519
U32A G45A | 0.852
G22C G25A | 0.409
G31C G35C | 0.779
C3G G36A | 0.271
C11A U13G | 0.853
G31A G36C | 0.671
U14C G35C | 0.499
U28A G33A | 0.829
U12G C15G | 0.819
U24C G35U | 0.655
C15A G36C | 0.379
C3U A42C | 0.406
G18U C38A | 0.527
C16A G35A | 0.727
C30A G35A | 0.765
U9G C11A | 1.47
C2G G10C | 0.38
A6G G45C | 0.433
U13C G31U | 1.22

Variant | self-cleavage
U9C A37C | 1.03
A1U G33C | 0.705
U14A A42C | 0.296
G22A U32G | 0.264
U9C U19A | 0.286
C20G C38A | 0.241
U9C U12G | 1.1
A37U C43U | 0.38
G5A G36A | 0.667
A6U U13C | 1.02
U12A C20U | 0.431
U21G C43U | 0.317
U21G C43G | 0.324
G4A G18U | 0.323
C11U A26G | 0.335
C11A A41C | 0.371
G4A C16A | 0.907
G36U C43G | 0.325
G8C C30G | 0.886
G5A C43A | 0.34
U13A G17C | 0.815
U24G G45U | 0.489
C11U U12C | 1.28
U28G G31A | 0.85

Variant | self-cleavage
C43U G45C | 0.451
G5A G39U | 0.329
C16A A41U | 0.37
G10C C43U | 0.524
G33U A40U | 0.391
C11A G27U | 0.684
A41G A44G | 0.692
U12A U21A | 0.658
G5U U13A | 1.37
A34G G36C | 0.276
U21A U32A | 0.539
G8U G36A | 0.658
G8U G36U | 0.495
G10A A40U | 0.298
U24C C43A | 0.271
G27U A37C | 0.308
G10U U32G | 0.758
G10U U32A | 0.896
G10A G33C | 0.959
G18C G33C | 0.616
G18C G33A | 0.765
U14A C15U | 0.994
G27A C30U | 0.69
C3G C30G | 0.273

Variant | self-cleavage
C16G G35C | 0.44
C16A C38G | 0.542
U13G G22A | 0.383
U13A U21G | 0.602
G5C G35U | 0.376
U13A A41C | 0.368
U19A G45U | 0.41
C3A U24C | 0.94
C20A U21A | 0.228
G5C U28A | 0.376
U12A U19A | 0.419
G5C C15U | 1.31
G5C C15A | 0.953
C15U G25C | 0.314
A6G A41U | 0.273
G10C A44U | 0.57
C20G G33C | 0.327
U12C A23C | 0.361
U9G G18C | 0.364
U13C G35A | 0.552
C3U C15A | 0.486
G22C G35C | 0.336
